Reference: the supplement of paper PMC11246515
± gives the standard deviation of the averaged measurements.

Experiment: total protein half-life in vivo (active degradation + dilution); higher = more stable protein
[1] = E. coli NCM3722 delta-clpP delta-lon delta-hslV, growth: N-lim chemostat, doubling time 6 h
[2] = E. coli NCM3722 delta-clpP, growth: N-lim chemostat, doubling time 6 h
[3] = E. coli NCM3722 delta-hslV, growth: N-lim chemostat, doubling time 6 h
[4] = E. coli NCM3722 delta-lon, growth: N-lim chemostat, doubling time 6 h
[5] = E. coli NCM3722 delta-smpB, growth: N-lim chemostat, doubling time 6 h
[6] = wild type E. coli NCM3722, growth: C-lim chemostat, doubling time 3 h
[7] = wild type E. coli NCM3722, growth: C-lim chemostat, doubling time 6 h
[8] = wild type E. coli NCM3722, growth: C-lim chemostat, doubling time 12 h
[9] = wild type E. coli NCM3722, growth: N-lim chemostat, doubling time 6 h
[10] = wild type E. coli NCM3722, growth: N-lim chemostat, doubling time 12 h
[11] = wild type E. coli NCM3722, growth: P-lim chemostat, doubling time 6 h
[12] = wild type E. coli NCM3722, growth: P-lim chemostat, doubling time 12 h

Sequence	total protein half-life in vivo [1] [h]	total protein half-life in vivo [2] [h]	total protein half-life in vivo [3] [h]	total protein half-life in vivo [4] [h]	total protein half-life in vivo [5] [h]	total protein half-life in vivo [6] [h]	total protein half-life in vivo [7] [h]	total protein half-life in vivo [8] [h]	total protein half-life in vivo [9] [h]	total protein half-life in vivo [10] [h]	total protein half-life in vivo [11] [h]	total protein half-life in vivo [12] [h]
MSEKYIVTWDMLQIHARKLASRLMPSEQWKGIIAVSRGGLVPGALLARELGIRHVDTVCISSYDHDNQRELKVLKRAEGDGEGFIVIDDLVDTGGTAVAIREMYPKAHFVTIFAKPAGRPLVDDYVVDIPQDTWIEQPWDMGVVFVPPISGR [P0A9M5]	4.63 ± 0.2	3.87 ± 0.29	4.153 ± 0.02	4.37 ± 0.52	4.28 ± 0.093	3 ± 0.046	5.55 ± 0.23	9.92 ± 0.83	4.16 ± 0.19	6.73 ± 0.53	6.07 ± 0.34	13.99 ± 0.054
MSVFPESFLWGGALAANQSEGAFREGDKGLTTVDMIPHGEHRMAVKLGLEKRFQLRDDEFYPSHEATDFYHRYKEDIALMAEMGFKVFRTSIAWSRLFPQGDEITPNQQGIAFYRSVFEECKKYGIEPLVTLCHFDVPMHLVTEYGSWRNRKLVEFFSRYARTCFEAFDGLVKYWLTFNEINIMLHSPFSGAGLVFEEGENQDQVKYQAAHHQLVASALATKIAHEVNPQNQVGCMLAGGNFYPYSCKPEDVWAALEKDRENLFFIDVQARGTYPAYSARVFREKGVTINKAPGDDEILKNTVDFVSFSYYASRCASAEMNANNSSAANVVKSLRNPYLQVSDWGWGIDPLGLRITMNMMYDRYQKPLFLVENGLGAKDEFAANGEINDDYRISYLREHIRAMGEAIADGIPLMGYTTWGCIDLVSASTGEMSKRYGFVFVDRDDAGNGTLTRTRKKSFWWYKKVIASNGEDLE	3.7	> 8	1.88		1.81 ± 0.14		2.47	4.65 ± 0.73				4.04 ± 0.89
MNVIRTEIEDVLILEPRVFGDDRGFFYESFNQSAFEHILGYPVSFVQDNHSRSSKNVLRGLHFQRGEYAQDKLVRCTHGAVFDVAVDIRPNSVSFGKWVGVLLSADNKQQLWIPKGFAHGFLVLSDIAEFQYKTTNYYHPESDCGICWNDERIAIDWPQTSGLILSPKDERLFTLDELIRLKLIA	6.28			3.33 ± 0.14						3.7		
MTVKQTVEITNKLGMHARPAMKLFELMQGFDAEVLLRNDEGTEAEANSVIALLMLDSAKGRQIEVEATGPQEEEALAAVIALFNSGFDED [P0A9N0]	4.886 ± 0.034	2.96	2.41	2.28	2.09	2.15 ± 0.18	3.27 ± 0.19	4.27	2.7	3.97 ± 0.24	2.35	4.46 ± 0.45
MTLTASSSSRAVTNSPVVVALDYHNRDDALAFVDKIDPRDCRLKVGKEMFTLFGPQFVRELQQRGFDIFLDLKFHDIPNTAAHAVAAAADLGVWMVNVHASGGARMMTAAREALVPFGKDAPLLIAVTVLTSMEASDLVDLGMTLSPADYAERLAALTQKCGLDGVVCSAQEAVRFKQVFGQEFKLVTPGIRPQGSEAGDQRRIMTPEQALSAGVDYMVIGRPVTQSVDPAQTLKAINASLQRSA	5.11 ± 0.11	6.25 ± 2.3	4.479 ± 0.025	5.08 ± 0.2	4.77 ± 0.33	2.89 ± 0.2	6.45 ± 1	9.6 ± 0.32	4.77 ± 0.15	8.44 ± 1.3	5.08 ± 0.49	10.2 ± 0.27
MVINCAFIGFGKSTTRYHLPYVLNRKDSWHVAHIFRRHAKPEEQAPIYSHIHFTSDLDEVLNDPDVKLVVVCTHADSHFEYAKRALEAGKNVLVEKPFTPTLAQAKELFALAKSKGLTVTPYQNRRFDSCFLTAKKAIESGKLGEIVEVESHFDYYRPVAETKPGLPQDGAFYGLGVHTMDQIISLFGRPDHVAYDIRSLRNKANPDDTFEAQLFYGDLKAIVKTSHLVKIDYPKFIVHGKKGSFIKYGIDQQETSLKANIMPGEPGFAADDSVGVLEYVNDEGVTVREEMKPEMGDYGRVYDALYQTITHGAPNYVKESEVLTNLEILERGFEQASPSTVTLAK	5.85 ± 0.38	4.79 ± 0.2	5.38 ± 0.92	4.78 ± 0.095	4.91 ± 0.26	3.04 ± 0.12	5.58 ± 0.54	11.6 ± 0.32	4.75 ± 0.06	8.63 ± 0.17	5.842 ± 0.057	12.3 ± 1.1
MSDQLQMTDGMHIIVEALKQNNIDTIYGVVGIPVTDMARHAQAEGIRYIGFRHEQSAGYAAAASGFLTQKPGICLTVSAPGFLNGLTALANATVNGFPMIMISGSSDRAIVDLQQGDYEELDQMNAAKPYAKAAFRVNQPQDLGIALARAIRVSVSGRPGGVYLDLPANVLAATMEKDEALTTIVKVENPSPALLPCPKSVTSAISLLAKAERPLIILGKGAAYSQADEQLREFIESAQIPFLPMSMAKGILEDTHPLSAAAARSFALANADVVMLVGARLNWLLAHGKKGWAADTQFIQLDIEPQEIDSNRPIAVPVVGDIASSMQGMLAELKQNTFTTPLVWRDILNIHKQQNAQKMHEKLSTDTQPLNYFNALSAVRDVLRENQDIYLVNEGANTLDNARNIIDMYKPRRRLDCGTWGVMGIGMGYAIGASVTSGSPVVAIEGDSAFGFSGMEIETICRYNLPVTIVIFNNGGIYRGDGVDLSGAGAPSPTDLLHHARYDKLMDAFRGVGYNVTTTDELRHALTTGIQSRKPTIINVVIDPAAGTESGHITKLNPKQVAGN [P0AFI0]	5.61 ± 0.33				3.08	> 4	3.11				4.43	9.26 ± 0.98
MKKVLIAALIAGFSLSATAAETIRFATEASYPPFESIDANNQIVGFDVDLAQALCKEIDATCTFSNQAFDSLIPSLKFRRVEAVMAGMDITPEREKQVLFTTPYYDNSALFVGQQGKYTSVDQLKGKKVGVQNGTTHQKFIMDKHPEITTVPYDSYQNAKLDLQNGRIDGVFGDTAVVTEWLKDNPKLAAVGDKVTDKDYFGTGLGIAVRQGNTELQQKLNTALEKVKKDGTYETIYNKWFQK	5.31 ± 0.27	5.44 ± 0.31	6.55 ± 0.075	7.11 ± 0.09	6.01 ± 0.43	3.16 ± 0.44	5.9 ± 0.34	11.55 ± 0.079	5.64 ± 0.36	12.2 ± 0.92	6.04 ± 0.31	12.2 ± 0.73
